Series [1] deals with T1, Taq DNA polymerase (UniProt P19821 P19821:1-832). In words: indirect functional evidence: 0.5 uM aptamer with 0.8 U/ul Taq preserves qPCR activity after drying with primers/probes and 1 week at 37 C; Wsebi Cp 24.8 vs liquid reference 24.7; 60 mM Tris pH 8.3, 60 mM KCl, 6.4 mM MgCl2; binding not measured directly. The following applies: tags: glycerol free; Roche AptaTaq when complexed with aptamer. The method, then:
The PCR performance of the polymerase with both aptamers were analyzed with detection mix (with primers and probes) after storage and re-solubilization using two different parameters. The liquid mixtures were dried 16 hours at 200 mbar and stored for 1 week at 37° C. prior to re-solubilization. As a control a liquid mixture without drying was used, too (called liquid reference in the following).
In general terms: In qPCR the cycle at which signal appears reflects the starting amount.

The target of series [2] is T1, Taq DNA polymerase. Kind of series: cell_free PCR activity after drying, other; indirect functional evidence: aptamer (0.65 pmol/U Taq) preserves qPCR activity after drying with primers/probes and 1 week at 37 C; Wsebi casein Cp 24.0 vs no. Conditions: tags: glycerol free; Roche AptaTaq when complexed with aptamer. The method, then:
The PCR performance of the polymerase after storage and re-solubilization was analyzed with and without detection mix (with or without primers and probes) using two different parameters. The liquid mixtures were dried 16 hours at 200 mbar and stored for 1 week at 37° C. prior to re-solubilization. As a control a liquid mixture without drying was used, too (called liquid reference in the following).
All mixtures were provided within wells of a 384 microtiter plate (Roche Diagnostic GmbH) and after the re-solubilization a PCR run was performed on the LightCycler®480 (Roche Diagnostic GmbH) using the following run protocol: [0123] 5 minutes 95° C. [0124] 10 seconds 95° C., 30 seconds 60° C., 1 second 72° C. (45×) [0125] 10 seconds 40° C.

T1 sequence (P19821 whole entry, one chain of several): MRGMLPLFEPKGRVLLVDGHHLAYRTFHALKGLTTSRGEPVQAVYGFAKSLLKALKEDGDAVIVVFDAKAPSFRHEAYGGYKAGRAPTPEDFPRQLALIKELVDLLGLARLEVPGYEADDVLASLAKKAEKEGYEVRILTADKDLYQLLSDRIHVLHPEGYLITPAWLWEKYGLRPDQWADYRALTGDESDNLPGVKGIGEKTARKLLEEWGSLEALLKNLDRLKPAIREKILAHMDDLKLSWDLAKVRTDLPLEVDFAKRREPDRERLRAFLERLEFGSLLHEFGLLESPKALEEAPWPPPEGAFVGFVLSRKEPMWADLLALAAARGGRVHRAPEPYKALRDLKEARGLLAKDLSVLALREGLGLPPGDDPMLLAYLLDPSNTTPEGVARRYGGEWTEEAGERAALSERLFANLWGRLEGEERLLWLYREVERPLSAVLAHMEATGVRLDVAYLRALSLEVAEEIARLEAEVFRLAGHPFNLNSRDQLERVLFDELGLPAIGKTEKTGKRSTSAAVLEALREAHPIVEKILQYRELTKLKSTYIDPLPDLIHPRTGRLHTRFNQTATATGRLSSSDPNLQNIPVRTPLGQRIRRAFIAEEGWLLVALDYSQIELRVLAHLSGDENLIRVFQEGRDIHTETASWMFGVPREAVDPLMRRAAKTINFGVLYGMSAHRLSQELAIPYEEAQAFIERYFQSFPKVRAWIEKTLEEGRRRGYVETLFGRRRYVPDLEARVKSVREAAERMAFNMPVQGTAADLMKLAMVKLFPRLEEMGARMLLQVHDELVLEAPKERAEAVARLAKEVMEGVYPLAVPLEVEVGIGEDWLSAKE

B1: 21-42-P (also printed 21-41-P) (ssDNA)
DNA: GATCATCTCAGAACATTCTTAGCGTTTTGTTCTTGTGTATGA
As to B1, the binding result in the series with Taq DNA polymerase [1] is on record as “binds”.

B2: NTQ12-46A (ssDNA)
DNA: CGATCATCTCAGAACATTCTTAGCGTTTTGTTCTTGTGTATGATCG
Consider B2, for which the binding result with Taq DNA polymerase [2] is “binds”.

The values above are taken from patent US20100159529, “DRY COMPOSITION OF REACTION COMPOUNDS WITH STABILIZED POLMERASE” (published 2010).
